Measurements taken from the DeepSol protein solubility set.

Experiment: soluble on expression in E. coli; label from the status in PepcDB or PDB records

Sequence	soluble on expression in E. coli
MEQLKKQVCDYIESHEEESVKFLKRLIQEKSVSGDESGAQAIVIEKLRELGLELDIWEPSFSKMKDHPYFVSPRTSFSDSPNIVATLKGSGDGKSMILNGHIDVVPEGDVNQWEHHPYSGEKIGNRIYGRGTTDMKGGNVALMLAMEAIIESNIELKGDIYFQSVIEEESGGAGTLATILRGYKADGVIIPEPTNMKFFPKQQGSMWFRLRVKGKAAHGGTRYEGVSAIEKSMFVIEHVRKLEEKRNSRITDPLFKEIPIPIPINIGKIEGGSWPSSVPDELILEGRCGVAPNETIEAAKEEFENWIAELNDVDNWFVENPVEVEWFGARWVPGELEENHELITTLHHNFVEIEGNEPIIEASPWGTDGGLFTQIANVPTIVFGPGETKVAHYPNEYIEVDKMIAAAKIIACTLLDWCEVKK	not soluble
MGSDKIHHHHHHMSSIYGADLRTVGERIKGERKRLGLSQTAFANLAGVGKTTQINYEKGTRNPDTEYLAALDSAGVDVYYVLTGRKSSGGSSDVQAPVEEPLDGYSPVPMYDIEAAAGAGRLIEHENIESTLYFQTQALSAEGLDPAHLIGAKVRGDSMGSTLQDGDRVIVDCSQRTPDGVFLLRVGEEYRIKRVQRVAGGAWLLISDNHAYEKEMIKPDEMQDVEILGRCRVRIGRVS	not soluble
MKTRTQQIEELQKEWTQPRWEGITRPYSAEDVVKLRGSVNPECTLAQLGAAKMWRLLHGESKKGYINSLGALTGGQALQQAKAGIEAVYLSGWQVAADANLAASMYPDQSLYPANSVPAVVERINNTFRRADQIQWSAGIEPGDPRYVDYFLPIVADAEAGFGGVLNAFELMKAMIEAGAAAVHFEDQLASVKKCGHMGGKVLVPTQEAIQKLVAARLCADVTGVPTLLVARTDADAADLITSDCDPYDSEFITGERTSEGFFRTHAGIEQAISRGLAYAPYADLVWCETSTPDLELARRFAQAIHAKYPGKLLAYNCSPSFNWQKNLDDKTIASFQQQLSDMGYKFQFITLAGIHSMWFNMFDLANAYAQGEGMKHYVEKVQQPEFAAAKDGYTFVSHQQEVGTGYFDKVTTIIQGGTSSVTALTGSTEESQF	soluble
MGSDKIHHHHHHMSHHIEDLLNAWSAAPQDDWVLAVVTHVEGSAYRKVGAMMLIHGMGKSVGLVSGGCLEADLRRRAQKVIQTGQAASVCYDATDEADASYQLGCGGLVHLMLLPLCAANHYLHFQALKAALASQGRCHYQLMLTDESLSPGSLGAKVWTSQQALDDAKAGWQLSDFPRPGILQGQSMQGETVRGQSLQDESVQGESASLVVPLREHHRIAIFGGGLDAQPVCQIAQQLGWRVDVVDRRTSYAREYDFVGANIIKLPVSELPKNFWTRLDGAIVMQHNLELDAKALAAIHQHAKQLSYLALLGPGHRRDRVLALAGLEVASFGAYFSAPAGLALGGELPSSIALSILSECHGVLHGAKRVALKEVMA	not soluble
GHMEELNIDFDVFKKRIELLYSKYNEFEGSPNSLLFVLGSSNAENPYQKTTILHNWLLSYEFPATLIALVPGKVIIITSSAKAKHLQKAIDLFKDPESKITLELWQRNNKEPELNKKLFDDVIALINSAGKTVGIPEKDSYQGKFMTEWNPVWEAAVKENEFNVIDISLGLSKVWEVKDVNEQAFLSVSSKGSDKFMDLLSNEMVRAVDEELKITNAKLSDKIENKIDDVKFLKQLSPDLSALCPPNYKFNFDLLDWTYSPIIQSGKKFDLRVSARSTNDQLYGNGCILASCGIRYNNYCSNITRTFLIDPSEEMANNYDFLLTLQKEIVTNILKPGRTPKEVYESVIEYIEKTKPELVPNFTKNIGSLIGLEFRDSNFILNVKNDYRKIQRGDCFNISFGFNNLKDSQSANNYALQLADTVQIPLDETEPPRFLTNYTKAKSQISFYFNNEEEDNNKKKSSPATKV	soluble
MMIENDETLNELHNDEEFCIKEQLSHVDHDEKVHVDSIVKKSECAHNYEQREKRDRSSSVDSKPEIKKICRCHESNCSKSSKYEKSSCGSKNKSGDSLSTASTGINECLNNSKNLNEPFKFFIGGIPQYITSKDTHELNGKRVDVREENNTTPSDIQRKIFVGGLNYYWTKDTLESYFSTFGEIDVVQIVLDSSGRSRCFGFVVFSNENSVAKVLKHKRHKIYDKMVEVRKAEPKKPKMSIKRSNNKNFSKFPPHIPFMAPFPPCNKETMAQWANFMYNTCGVPFLFNQRFQNLPDFYSNYNYYQNSLENIQQSEYNN	not soluble
GDFSWNSSLTYTMNRNKVKRLASGATNPITGEIIDMPELRMAVLGADGYGPRVILREGGTMGDLYVDKGLRTDGNGNIWVDSQTGKVGVQDYAEPKKIGTMNPDFNMGFSNTFSYKGINLGVVLTARVGGLCVSNTQGILDYYGVSKATADARDAGGVWINNGFVDAKSYYQTIGGSTGGLGQYYTYSATNIRLSELNLSYTLPRKWFNNKVGITAGIVGKNLWMIYCKAPFDPEMTPSTTSNFYQGVDYFMQPSTRNIGFNVKFQF	not soluble
MSLHYPFVTNDDIEWMLSICVEWRLPEIAKEIYTTLGNQMLSAHNIIESIANFSRAGKYELVKSYSWLLFEASCMEGQKLDDPVLNAIVSKNSPAEDDVIIPQDILDCVVTNSMRQTLAPYAVLSQFYELRDREDWGQALRLLLLLIEFPYLPKHYLVLLVAKFLYPIFLLDDKKLMDEDSVATVIEVIETKWDDADEKSSNLYETIIEADKSLPSSMATLLKNLRKKLNFKLCQAFMEGHHHHHH	not soluble
AIAAQKISEAHEHIAKAEKYLKTSFMKWKPDYDSAASEYAKAAVAFKNAKQLEQAKDAYLQEAEAHANNRSLFHAAKAFEQAGMMLKDLQRMPEAVQYIEKASVMYVENGTPDTAAMALDRAGKLMEPLDLSKAVHLYQQAAAVFENEERLRQAAELIGKASRLLVRQQKFDEAAASLQKEKSMYKEMENYPTCYKKCIAQVLVQLHRADYVAAQKCVRESYSIPGFSGSEDCAALEDLLQAYDEQDEEQLLRVCRSPLVTYMDNDYAKLAISLKVPGGGGGKKKPSASASAQPQEEEDDEYAGGLC	soluble
MDITKADEPVIDEKDYPKPSDAELKAKLTPLQYSVTQNKHTERSFSNEYWDNFQPGIYVDITTGEPVFSSNDKFESGCGWPSFTKPIIKDVVHYETDNSFNMQRTEVLSRAGNAHLGHVFDDGPKDKGGLRYCINSASIKFIPLAEMEKAGYGYLIQSIKK	not soluble
MSVELRDATVDDLSGIMEIYNDAVVNTTAIWNEVVVDLENRKDWFAARTSRGFPVIVAILDGKVAGYASYGDWRAFDGYRHTREHSVYVHKDARGHGIGKRLMQALIDHAGGNDVHVLIAAIEAENTASIRLHESLGFRVVGRFSEVGTKFGRWLDLTCMELKLG	not soluble
MITAYIALGSNLNTPVEQLHAALKAISQLSNTHLVTTSSFYKSKPLGPQDQPDYVNAVAKIETELSPLKLLDELQRIENEQGRVRLRRWGERTLDLDILLYGNEIIQNERLTIPHYDMHNREFVIVPLFEIASDLVLPNSQIITELVKQFADHKMIKLNP	soluble
MSPSQDPSLENYRAIADGIATLFFPHAEVVLHDLRSQRVDYIANNLSKREVGDDSALEDMLEGDSDERNIGPYEKLNWDGQKIRSVSTVLRDSAGQPLAVLCINLNISLFESAKAALDLFLSPSKLIPQPDALFRDDWQERINTFLHGWLRQRQLGLNLLTREHKRELVLALHAEGAFKGKSAANYVANVLNMGRATVYKHLKELKEGGD	not soluble
MTIQQAMHQMPGKPGRDAIAEGETPRKASSDEAGCPRNDSTPTGSGLLQAALTRDNLQLAFKQVRANKGAAGVDGLGIVETAEHLKTAWPGIRAQLLAGTYRPDPVRRVLIPKPGGGERKLGIPTVTDRLIQQALLQVLQPLLDPDFSNHSYGFRPERSAHQAVLAAQQYIHSGRQIVVDVDLEQFFDCVEHDVLIARLGRKVKDRDVLRLIRAYLNSGALIEGMVMTSTRGTPQGGPLSPLLANVVLDEVDKELERRGHCFVRYADDANVYVRSPKAGQRVMALLRRLYGRLGLRVNESKSAVASAFGRKFLGFSFWQSPKGEVKRRVALKALQVFKHRIRGLTPRSGGRSLPQVVENLRPYLLGWKAYFGLSQAPGLWKSLDGWIRRRLRAIQLKQWKTGKTTYRELRKLGANSDLAAAIASDSHRTWHNSAGLIHGVLTVAWFDRLGLPRLYLEHHHHHH	not soluble
MEFLKLSEGKTKEVYAYDDSHVLLKFKDSITAGDGARKDILEGKGILNAQTSAFLFRLLESKGIETHYIGMFDERTMIAKKLKMIPVEVVLRNIATGSIVKRLPIKEGEVFEPPIIEFFLKDDERHDPMLNYYHMEYLKLMTRKEAEKIEEIMLKVNEILYPFFRSKKLLLYDFKLEFGRVNDKLIIGDELTLDSMRIREEGSGRILDKDLYRKGADLETVKKAYEEFFKRISE	soluble
LSKGTRDRKNIYVSPEEMARQQRFIDEIKELNYRKEVKTGKKKLYCLNTFGCQMNEHDSEKLAGMLAEMGYAETDNVNESDLVIYNTCCVRENAELKVYGHLGMLKPLKNQKPDLVIAVCGCMMQQPEVVEHIKKTYSHVDLIFGTHNLYKFPELLYSAMDSQTTVVDVWDCDGQIAENVAIERKDGVKAWVTVMYGCNNFCTYCIVPYVRGRERSRSMDDILEEVRMLGRQGFKEITLLGQNVNSYGKDIGDGTSFAELIREVNKIPGIERIRFTTSHPKDLSDDLIYAMRDCEKVCEHLHLPFQAGSTRILKLMNRKYTKEDYINLVAKIKENIPDIALTTDIIVGFPGETEEDFSDTLDILEKVRFDNAYTFLYSKRTGTPAAKMEDQVPEEVKKERFQRLLETQNRISKEINDTFLGKVVEVLVEGVSKTNDKIFTGRTRGNKVVNFEADASLIGKLVNVRINTVKTWSLEGSIVR	soluble
MGLCVSKPSVAGSPEHYAAHVAEQATPSEEGSGTPAQATSSYSATDPALQGLARRGKKVDLSRSGLPERVALKTKLLANSLSDAKDAGVRSSIVKYGERTLKMLAANKQPDEALLKLDIKNLPALASVYNRRYPGLNIQHFDSPIDFLQSLSEQTTSVVSQRAVLRLERDGEHHVAADVRRRPNGEASVIVLEPARLLTFVTGHTQLRRQALSQLGENAKFAFIQVGAQKSAADCLMFDLHFALHAHQHSSLFDQWHDNMVNHGTIDPYGQGAASPDALLEDAGVELMLGEQMLPAIFYKHTHSSGVVEEVDRSQPGSAYTDVSTSGRQQQHESLEQRVQAFRVDRGYSASIETSRATKIRSALETAISDRQS	not soluble
MSLATSYVGTVAGEKITTKEFKYFLGYVKIQMENDAQLQDQASKEAFWDSKIEGVDAKELAKQKALDSCKEFKIQLLKARERGLFLNDKDMQEIENSITTLLNQMAQFDQAAKNTGVEVMSAEEMLKDTYGVTIQEYKEILKDLRLVLKLVEDEQKNITITEEELRNRYNENKDVFDKITVRHIIFYTINPKTDVSLSEDAKKKAYENAKKALERANKGEDMEALALELSEDSGVEGNKGILEINSLKVNEPKLSNLVKWAYEHKVGDTDIVETGYGYHVVKIEKRTEYKDVVQNVKNVILSERYNQILGQWKQEPQYDLKKNEFALKRIKEGHHHHHH	soluble
MAMVSGRRSTLNPDAPLFIPAAVRQVEDFSPEWWQLVTTSTWYPDYWISQQQQGADGFYDNGENENGGGHIDVADLLPESFDFDDMEDFFDTDAAEFDQGFDGRMYYQAPSEFGFGKNGEMVKKSSGNRSPRSIVEPAKYAEKPAKWGNQRVAAAPRNIHQPR	soluble
MSSETRRKILEAARKAFSKYGYDGVSMEEIAREAGVKKALIYYYFPSKDKLFEEVWREALEELESHLFAVTEETNSYFAKIKKFLKSYVDFVLNKTVLNEIIEKEKSTVRFEEEKWSKLRERYESFIKRVEELIEEGKKQNYVYKDLDSRAAAELIVNSFGDVPKDKRLLQNIQEMILRGLLNVKTEEGR	not soluble
